T1: B7-H6, extracellular portion (residues Asp25-Ser262) (human, UniProt Q68D85 25-262, N-linked glycans seen at Asn43, Asn57 and Asn208)
T1 sequence (looked up): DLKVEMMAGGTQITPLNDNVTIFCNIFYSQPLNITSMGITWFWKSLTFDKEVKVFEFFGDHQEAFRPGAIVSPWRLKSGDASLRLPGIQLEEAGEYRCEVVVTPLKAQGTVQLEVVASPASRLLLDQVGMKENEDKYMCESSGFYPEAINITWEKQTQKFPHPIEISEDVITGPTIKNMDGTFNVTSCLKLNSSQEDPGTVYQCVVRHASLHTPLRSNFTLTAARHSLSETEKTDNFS

B1: NKp30 F85A/L86A mutant, extracellular portion (domain or fragment, human, UniProt O14931 19-135, looked up)
chain: LWVSQPPEIRTLEGSSAFLPCSFNASQGRLAIGSVTWFRDEVVPGKEVRNGTPEFRGRLAPLASSRAAHDHQAELHIRDVRGHDASIYVCRVEVLGLGVGTGNGTRLVVEKEHPQLG
B2: NKp30 S52R mutant, extracellular portion (domain or fragment, human, UniProt O14931 19-135, looked up)
chain: B1 chain with S34R, A67F, A68L
B3: NKp30 I50A/S52A mutant, extracellular portion (domain or fragment, human, UniProt O14931 19-135, looked up)
chain: B1 chain with I32A, S34A, A67F, A68L

For three molecules, Kd results are on record in PMC3135353 (The Journal of Experimental Medicine, 2011).

Changes are numbered by the printed parent chain. Names and notes keep the numbering of the source.

The target in the test is T1, B7-H6, extracellular portion (residues …). As to the kind of experiment: SPR.
In the case of B1, the affinity, expressed as Kd, was 53 µM. In turn, B2 yielded a Kd of 150 µM. For the molecule B3, binding was put at a Kd of 14 µM.

The Kd is a measure of binding affinity in units of concentration.
